Measured values taken from patent publication US20180273599A1.

T1: betaglycan on LβT2 mouse pituitary gonadotrope cells (mouse) (UniProt O88393)
T1 sequence (looked up): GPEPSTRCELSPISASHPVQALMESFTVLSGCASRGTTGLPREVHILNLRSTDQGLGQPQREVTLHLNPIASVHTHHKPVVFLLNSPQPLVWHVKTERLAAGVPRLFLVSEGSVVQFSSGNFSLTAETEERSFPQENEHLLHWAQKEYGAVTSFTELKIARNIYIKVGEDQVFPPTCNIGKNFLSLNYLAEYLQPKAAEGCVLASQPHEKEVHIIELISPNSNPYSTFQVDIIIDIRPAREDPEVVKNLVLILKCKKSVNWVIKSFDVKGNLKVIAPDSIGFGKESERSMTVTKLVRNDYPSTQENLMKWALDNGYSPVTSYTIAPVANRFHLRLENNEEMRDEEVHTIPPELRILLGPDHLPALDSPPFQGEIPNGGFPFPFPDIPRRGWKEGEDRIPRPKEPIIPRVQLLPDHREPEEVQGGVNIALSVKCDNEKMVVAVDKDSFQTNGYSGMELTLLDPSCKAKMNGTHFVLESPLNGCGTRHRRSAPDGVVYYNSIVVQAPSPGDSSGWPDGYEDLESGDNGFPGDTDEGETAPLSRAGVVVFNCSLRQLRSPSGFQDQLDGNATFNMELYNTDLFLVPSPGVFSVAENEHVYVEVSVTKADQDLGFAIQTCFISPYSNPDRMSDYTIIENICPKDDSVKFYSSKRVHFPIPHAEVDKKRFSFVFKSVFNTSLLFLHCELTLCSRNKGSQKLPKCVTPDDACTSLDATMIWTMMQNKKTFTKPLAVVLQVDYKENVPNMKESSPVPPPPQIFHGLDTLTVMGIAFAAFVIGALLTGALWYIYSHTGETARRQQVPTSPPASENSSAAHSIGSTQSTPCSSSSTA

T2: betaglycan on primary rat pituitary cells (rat) (UniProt P26342)
T2 sequence (looked up): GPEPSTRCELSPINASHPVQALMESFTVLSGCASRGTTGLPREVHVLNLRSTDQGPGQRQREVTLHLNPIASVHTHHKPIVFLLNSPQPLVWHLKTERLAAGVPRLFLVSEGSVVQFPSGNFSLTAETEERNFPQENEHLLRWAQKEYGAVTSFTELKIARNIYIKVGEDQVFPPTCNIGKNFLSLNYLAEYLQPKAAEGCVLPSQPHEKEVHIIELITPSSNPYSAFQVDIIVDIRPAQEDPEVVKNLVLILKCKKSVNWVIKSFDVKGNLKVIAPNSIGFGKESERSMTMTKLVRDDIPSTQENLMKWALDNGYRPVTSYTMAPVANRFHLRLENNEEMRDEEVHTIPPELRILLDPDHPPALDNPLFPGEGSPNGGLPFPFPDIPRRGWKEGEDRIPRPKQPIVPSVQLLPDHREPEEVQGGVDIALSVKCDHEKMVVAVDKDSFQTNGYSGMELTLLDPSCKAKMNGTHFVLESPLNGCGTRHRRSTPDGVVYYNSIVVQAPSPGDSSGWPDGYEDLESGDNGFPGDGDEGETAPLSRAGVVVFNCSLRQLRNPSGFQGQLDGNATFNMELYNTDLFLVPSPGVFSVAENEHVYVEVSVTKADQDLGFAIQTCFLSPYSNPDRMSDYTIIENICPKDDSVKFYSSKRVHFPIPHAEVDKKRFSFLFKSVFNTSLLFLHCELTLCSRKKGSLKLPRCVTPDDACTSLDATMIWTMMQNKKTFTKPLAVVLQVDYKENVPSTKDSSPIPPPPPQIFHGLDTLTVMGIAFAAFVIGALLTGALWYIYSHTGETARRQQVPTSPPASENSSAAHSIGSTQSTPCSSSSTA

T3: HIS-tagged inhibin α-subunit prodomain (human) (UniProt P05111)
T3 sequence: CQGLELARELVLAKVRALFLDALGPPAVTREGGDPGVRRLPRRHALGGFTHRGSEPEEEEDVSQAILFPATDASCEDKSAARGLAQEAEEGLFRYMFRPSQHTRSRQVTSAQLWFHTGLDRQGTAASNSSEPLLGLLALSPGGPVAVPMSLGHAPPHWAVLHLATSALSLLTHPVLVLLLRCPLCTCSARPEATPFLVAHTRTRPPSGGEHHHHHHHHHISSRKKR

T4: type I receptor (ALK4) (UniProt P36896)
T4 sequence (looked up): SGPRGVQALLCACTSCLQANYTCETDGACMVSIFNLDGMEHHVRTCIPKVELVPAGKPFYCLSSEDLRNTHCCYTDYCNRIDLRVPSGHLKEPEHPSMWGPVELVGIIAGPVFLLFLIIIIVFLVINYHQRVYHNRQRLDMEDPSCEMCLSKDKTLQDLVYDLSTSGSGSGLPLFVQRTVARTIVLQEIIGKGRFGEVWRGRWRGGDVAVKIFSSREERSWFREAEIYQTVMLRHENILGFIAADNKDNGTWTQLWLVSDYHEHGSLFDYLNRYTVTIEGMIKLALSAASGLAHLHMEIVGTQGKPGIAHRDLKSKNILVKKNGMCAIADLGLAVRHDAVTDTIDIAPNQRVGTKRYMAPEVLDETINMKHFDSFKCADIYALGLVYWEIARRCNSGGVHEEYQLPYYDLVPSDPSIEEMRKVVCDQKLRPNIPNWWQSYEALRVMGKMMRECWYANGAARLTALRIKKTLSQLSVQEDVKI


Key:
[1] = molecular target: T1, betaglycan on LβT2 mouse pituitary gonadotrope cells (mouse); experiment: cell-based or functional assay
[2] = molecular target: T2, betaglycan on primary rat pituitary cells (rat); experiment: cell-based or functional assay
[3] = molecular target: T3, HIS-tagged inhibin α-subunit prodomain (human); experiment: IMAC (Ni-NTA) co-purification from HEK293T conditioned medium; Western blot and ELISA
[4] = molecular target: T4, type I receptor (ALK4); experiment: cell-based or functional assay

Binder | IC50, FSH release by LβT2 pituitary gonadotrope cells [1] | IC50, decrease in FSH release by primary rat pituitary cells [2] | percent of mature inhibin A co-purified with the HIS-tagged prodomain [3] | potency in FSH release by LβT2 cells, against mature inhibin A [1] | activin response, activin-responsive luciferase reporter (A3-Luc) in HEK293 cells, against inhibin A-SCUT without M418A [4]
HPLC-purified mature inhibin A (ligand) chain 1: STPLMSWPWSPSALRLLQRPPEEPAAHANCHRVALNISFQELGWERWIVYPPSFIFHYCHGGCGLHIPPNLSLPVPGAPPTPAQPYSLLPGAQPCCAALPGTMRPLHVRTTSDGGYSFKYETVPNLLTQHCACI chain 2: GLECDGKVNICCKKQFFVSFKDIGWNDWIIAPSGYHANYCEGECPSHIAGTSGSSLSFHSTVINHYRMRGHSPFANLKSCCVPTKLRPMSMLYYDDGQNIIKKDIQNMIVEECGCS | 1 nM | 0.065 nM |  |  | 
mature inhibin A (M418A) (ligand) chain 1: SVSSTPLMSWPWSPSALRLLQRPPEEPAAHANCHRVALNISFQELGWERWIVYPPSFIFHYCHGGCGLHIPPNLSLPVPGAPPTPAQPYSLLPGAQPCCAALPGTMRPLHVRTTSDGGYSFKYETVPNLLTQHCACI chain 2: SVSSGLECDGKVNICCKKQFFVSFKDIGWNDWIIAPSGYHANYCEGECPSHIAGTSGSSLSFHSTVINHYRMRGHSPFANLKSCCVPTKLRPMSMLYYDDGQNIIKKDIQNAIVEECGCS |  |  | > 90% |  | 
Pro-inhibin A (M418A) (ligand) chain 1: CQGLELARELVLAKVRALFLDALGPPAVTREGGDPGVRRLPRRHALGGFTHRGSEPEEEEDVSQAILFPATDASCEDKSAARGLAQEAEEGLFRYMFRPSQHTRSRQVTSAQLWFHTGLDRQGTAASNSSEPLLGLLALSPGGPVAVPMSLGHAPPHWAVLHLATSALSLLTHPVLVLLLRCPLCTCSARPEATPFLVAHTRTRPPSGGEHHHHHHHHHISSRKKRSVSSTPLMSWPWSPSALRLLQRPPEEPAAHANCHRVALNISFQELGWERWIVYPPSFIFHYCHGGCGLHIPPNLSLPVPGAPPTPAQPYSLLPGAQPCCAALPGTMRPLHVRTTSDGGYSFKYETVPNLLTQHCACI chain 2: DYKDDDDKSPTPGSEGHSAAPDCPSCALAALPKDVPNSQPEMVEAVKKHILNMLHLKKRPDVTQPVPKAALLNAIRKLHVGKVGENGYVEIEDDIGRRAEMNELMEQTSEIITFAESGTARKTLHFEISKEGSDLSVVERAEVWLFLKVPKANRTRTKVTIRLFQQQKHPQGSLDTGEEAEEVGLKGERSELLLSEKVVDARKSTWHVFPVSSSIQRLLDQGKSSLDVRIACEQCQESGASLVLLGKKKKKEEEGEGKKKGGGEGGAGADEEKEQSHRPFLMLQARQSEDHPHISSRKKRSVSSGLECDGKVNICCKKQFFVSFKDIGWNDWIIAPSGYHANYCEGECPSHIAGTSGSSLSFHSTVINHYRMRGHSPFANLKSCCVPTKLRPMSMLYYDDGQNIIKKDIQNAIVEECGCS | 0.045 nM | 0.075 nM |  | 22 fold | 
activin A (M418A), residual in the inhibin A-SCUT (M418A) preparation (ligand) DYKDDDDKSPTPGSEGHSAAPDCPSCALAALPKDVPNSQPEMVEAVKKHILNMLHLKKRPDVTQPVPKAALLNAIRKLHVGKVGENGYVEIEDDIGRRAEMNELMEQTSEIITFAESGTARKTLHFEISKEGSDLSVVERAEVWLFLKVPKANRTRTKVTIRLFQQQKHPQGSLDTGEEAEEVGLKGERSELLLSEKVVDARKSTWHVFPVSSSIQRLLDQGKSSLDVRIACEQCQESGASLVLLGKKKKKEEEGEGKKKGGGEGGAGADEEKEQSHRPFLMLQARQSEDHPHISSRKKRSVSSGLECDGKVNICCKKQFFVSFKDIGWNDWIIAPSGYHANYCEGECPSHIAGTSGSSLSFHSTVINHYRMRGHSPFANLKSCCVPTKLRPMSMLYYDDGQNIIKKDIQNAIVEECGCS |  |  |  |  | 100 fold lower
